Source: the supplement of paper PMC7877785
± gives the uncertainty stated by the source.

Test: self-splicing fitness, log relative to wild type (ln ratio); higher = more splicing; Tetrahymena group I intron in knt gene, E. coli kanamycin selection, DiMSum; sequences stand for … in CUCUCU…GGAGGGAAAAGUUAUCAGGCAUGCACCUGGUAGCUAGUCUUUAAACCAAUAGAUUGCAUCGGUUUAAAAGGCAAGACCGUCAAAUUGCGGGAAAGGGGUCAACAGCCGUUCAGUACCAAGUCUCAGGGGAAACUUUGAGAUGGCCUUGCAAAGGGUAUGGUAAUAAGCUGACGGACAUGGUCCUAACCACGCAGCCAAGUCCUAAGUCAACAGAUCUUCUGUUGAUAUGGAUGCAGUUCACAGACUAAAUGUCGGUCGGGGAAGAUGUAUUCUUCUCAUAAGAUAUAGUCGGACCUCUCCUUAAUGGGAGCUAGCGGAUGAAGUGAUGCAACACUGGAGCCGCUGGGAACUAAUUUGUAUGCGAAAGUAUAUUGAUUAGUUUUGGAGUACUCGUGGUCG
Procedure, shortened: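 Pooled colonies went to amplicon sequencing on an Illumina HiSeq 2500 after six replicate transformations. The plates were LB agar with 100 μg/mL carbenicillin, 50 μM IPTG and 0.2% rhamnose, with or without 25 μg/mL kanamycin, incubated overnight at 37°C or 30°C. The E. coli BL21(DE3) library had all eight P1ex-region intron nucleotides randomised, the intron placed in the knt kanamycin-resistance gene on pET-22b(+). DiMSum fitness is the error-weighted combination of replicate fold changes, kanamycin against none, normalised to wild type.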

Sequence	self-splicing fitness (ln) (30 °C)	self-splicing fitness (ln) (37 °C)
CACUAGCAAUAUUACGUCGU	-3.39 ± 0.11	-1.76 ± 0.094
CACUAGCAAUAUUACGUCUU	-3.77 ± 0.3	-2.75 ± 0.26
CACUAGCAAUAUUACGUUGA	-3.56 ± 0.2	-2.24 ± 0.16
CAGAAGCAAUAUUACGAAAA	-4.31 ± 0.46	-2.65 ± 0.21
CAGAAGCAAUAUUACGAAAG	-1.29 ± 0.11	-0.392 ± 0.12
CAGAAGCAAUAUUACGAACU	-2.12 ± 0.13	-1.72 ± 0.17
CAGAAGCAAUAUUACGACAG	-0.805 ± 0.15	-0.248 ± 0.23
CAGAAGCAAUAUUACGAGUA	-3.2 ± 0.29	-1.66 ± 0.22
CAGAAGCAAUAUUACGAUCC	-2.81 ± 0.16	-1.93 ± 0.32
CAGAAGCAAUAUUACGCAAC	–	-2.39 ± 0.33
CAGAAGCAAUAUUACGCAAU	-4.46 ± 0.42	-2.79 ± 0.24
CAGAAGCAAUAUUACGCGCG	-0.373 ± 0.17	0.0448 ± 0.29
CAGAAGCAAUAUUACGCGUU	-3.09 ± 0.17	-3.61 ± 0.29
CAGAAGCAAUAUUACGGAGU	-3.56 ± 0.28	-3.14 ± 0.4
CAGAAGCAAUAUUACGGAUC	-1.26 ± 0.11	-2.62 ± 0.17
CAGAAGCAAUAUUACGGGUG	-0.824 ± 0.064	-0.429 ± 0.08
CAGAAGCAAUAUUACGGUCG	-0.112 ± 0.075	0.395 ± 0.11
CAGAAGCAAUAUUACGUAAA	-4.01 ± 0.31	-1.73 ± 0.16
CAGAAGCAAUAUUACGUAAC	-3.85 ± 0.27	-2.26 ± 0.32
CAGAAGCAAUAUUACGUCCG	0.0183 ± 0.11	-0.0354 ± 0.13
CAGAAGCAAUAUUACGUCCU	-1.94 ± 0.18	-0.858 ± 0.16

Sequence	self-splicing fitness (ln) (30 °C)	self-splicing fitness (ln) (37 °C)
CAGAAGCAAUAUUACGUGAC	-3 ± 0.22	-2.18 ± 0.21
CAGAAGCAAUAUUACGUGAU	-2.97 ± 0.14	-1.26 ± 0.11
CAGAAGCAAUAUUACGUGGC	-3.7 ± 0.16	-2.15 ± 0.15
CAGAAGCAAUAUUACGUUCU	-2.75 ± 0.11	-1.88 ± 0.1
CAGAAGCAAUAUUACGUUUC	-3.38 ± 0.29	-2.12 ± 0.23
CAGCAGCAAUAUUACGAAGU	-2.46 ± 0.14	-2.03 ± 0.24
CAGCAGCAAUAUUACGACAC	-2.83 ± 0.23	-2.45 ± 0.26
CAGCAGCAAUAUUACGACGG	-0.183 ± 0.064	0.472 ± 0.1
CAGCAGCAAUAUUACGACUC	-0.922 ± 0.091	-0.00599 ± 0.14
CAGCAGCAAUAUUACGAGUG	-1.54 ± 0.056	-0.155 ± 0.074
CAGCAGCAAUAUUACGAUGC	-4.05 ± 0.28	-2.89 ± 0.34
CAGCAGCAAUAUUACGAUGG	-0.264 ± 0.07	0.177 ± 0.092
CAGCAGCAAUAUUACGCAGG	-2.56 ± 0.12	-0.864 ± 0.11
CAGCAGCAAUAUUACGCCUA	-0.345 ± 0.076	0.522 ± 0.094
CAGCAGCAAUAUUACGCUGC	-3.06 ± 0.22	-2.36 ± 0.2
CAGCAGCAAUAUUACGGAUU	-3 ± 0.14	-1.64 ± 0.13
CAGCAGCAAUAUUACGGCAG	-0.983 ± 0.079	-0.261 ± 0.11
CAGCAGCAAUAUUACGGCCG	-0.67 ± 0.08	-0.622 ± 0.12
CAGCAGCAAUAUUACGGCGU	-1.61 ± 0.07	-0.859 ± 0.08
CAGCAGCAAUAUUACGGCUA	-0.235 ± 0.088	0.311 ± 0.13
CAGCAGCAAUAUUACGGCUC	-0.127 ± 0.081	-0.486 ± 0.099
